According to patent publication US20250115663A1 (CELLDEX THERAPEUTICS, published 2025):

T1: kappa-sCD40(1-94)-Flag point mutant A5T (human, UniProt P25942 21-114)
T1 construct: not shown: N-terminal human kappa light chain; C-terminal Flag tag
T1 chain: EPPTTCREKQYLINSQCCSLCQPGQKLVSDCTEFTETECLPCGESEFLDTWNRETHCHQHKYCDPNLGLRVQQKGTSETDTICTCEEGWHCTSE

T2: kappa-sCD40(1-94)-Flag point mutant F34L (human, UniProt P25942 21-114)
T2 construct: not shown: N-terminal human kappa light chain; C-terminal Flag tag
T2 chain: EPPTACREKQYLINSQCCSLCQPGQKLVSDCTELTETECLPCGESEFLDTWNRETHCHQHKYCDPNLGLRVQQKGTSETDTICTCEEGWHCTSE

T3: kappa-sCD40(1-94)-Flag point mutant T35E (human, UniProt P25942 21-114)
T3 construct: not shown: N-terminal human kappa light chain; C-terminal Flag tag
T3 chain: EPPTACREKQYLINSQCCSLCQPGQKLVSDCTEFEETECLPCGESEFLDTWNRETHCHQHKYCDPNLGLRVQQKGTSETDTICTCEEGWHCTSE

T4: kappa-sCD40(1-94)-Flag point mutant P3S (human, UniProt P25942 21-114)
T4 construct: not shown: N-terminal human kappa light chain; C-terminal Flag tag
T4 chain: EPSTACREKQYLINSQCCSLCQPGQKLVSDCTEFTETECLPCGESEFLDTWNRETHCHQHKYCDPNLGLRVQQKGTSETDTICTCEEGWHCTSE

T5: kappa-sCD40(1-94)-Flag mutant fragment D (multiple mutations of residues 33-36) (human, UniProt P25942 21-114)
T5 construct: The text says only multiple mutations of residues 33-36 (human to mouse differences); that mutant D carries exactly these is inferred; also called D (33-36); not shown: N-terminal human kappa light chain; C-terminal Flag tag
T5 chain: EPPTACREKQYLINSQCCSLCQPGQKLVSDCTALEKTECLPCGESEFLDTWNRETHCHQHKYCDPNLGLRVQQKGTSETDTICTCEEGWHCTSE

T6: kappa-sCD40(1-94)-Flag point mutant E33A (human, UniProt P25942 21-114)
T6 construct: not shown: N-terminal human kappa light chain; C-terminal Flag tag
T6 chain: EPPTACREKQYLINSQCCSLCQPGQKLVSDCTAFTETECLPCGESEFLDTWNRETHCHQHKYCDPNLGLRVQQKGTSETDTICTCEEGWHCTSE

T7: kappa-sCD40(1-94)-Flag point mutant E36K (human, UniProt P25942 21-114)
T7 construct: not shown: N-terminal human kappa light chain; C-terminal Flag tag
T7 chain: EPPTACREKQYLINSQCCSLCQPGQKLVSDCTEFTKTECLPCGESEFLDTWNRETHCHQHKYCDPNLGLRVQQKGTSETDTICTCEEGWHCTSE

T8: kappa-sCD40(1-94)-Flag point mutant T4V (human, UniProt P25942 21-114)
T8 construct: not shown: N-terminal human kappa light chain; C-terminal Flag tag
T8 chain: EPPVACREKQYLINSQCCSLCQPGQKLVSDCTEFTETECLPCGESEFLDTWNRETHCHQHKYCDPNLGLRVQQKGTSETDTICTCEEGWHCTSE


Tests used:
Assay in all cases: ELISA, kappa-sCD40-Flag fusion captured on anti-Flag, anti-human IgG Fc-HRP
[1] = biological target: T1, kappa-sCD40(1-94)-Flag point mutant A5T
[2] = biological target: T2, kappa-sCD40(1-94)-Flag point mutant F34L
[3] = biological target: T9, kappa-sCD40(1-94)-Flag point mutant E1G (human, UniProt P25942 22-114)
T9 construct: not shown: N-terminal human kappa light chain; C-terminal Flag tag

[4] = biological target: T3, kappa-sCD40(1-94)-Flag point mutant T35E
[5] = biological target: T4, kappa-sCD40(1-94)-Flag point mutant P3S
[6] = biological target: T10, kappa-sCD40(1-94)-Flag mutant fragment A (multiple mutations of residues 1-5) (human, UniProt P25942 26-114)
T10 construct: The text says only multiple mutations of residues 1-5 (human to mouse differences); that mutant A carries exactly these is inferred; also called A (1-5); not shown: N-terminal human kappa light chain; C-terminal Flag tag

[7] = biological target: T11, kappa-sCD40-Flag fusion protein, fragment amino acids 84-173 (human, UniProt P25942 104-193)
T11 construct: not shown: N-terminal human kappa light chain; C-terminal Flag tag

[8] = biological target: T5, kappa-sCD40(1-94)-Flag mutant fragment …
[9] = biological target: T6, kappa-sCD40(1-94)-Flag point mutant E33A
[10] = biological target: T7, kappa-sCD40(1-94)-Flag point mutant E36K
[11] = biological target: T12, kappa-sCD40-Flag fusion protein, full length ECD amino acid residues 1-173 (human, UniProt P25942 21-193)
T12 construct: also called full length sCD40; not shown: N-terminal human kappa light chain; C-terminal Flag tag

[12] = biological target: T8, kappa-sCD40(1-94)-Flag point mutant T4V
[13] = biological target: T13, kappa-sCD40-Flag fusion protein, fragment amino acids 36-130 (human, UniProt P25942 56-150)
T13 construct: not shown: N-terminal human kappa light chain; C-terminal Flag tag

[14] = biological target: T14, kappa-sCD40-Flag fusion protein, fragment amino acids 1-94 (human, UniProt P25942 21-114)
T14 construct: also called sCD40aa 1-94; not shown: N-terminal human kappa light chain; C-terminal Flag tag

T13 sequence (P25942 56-150): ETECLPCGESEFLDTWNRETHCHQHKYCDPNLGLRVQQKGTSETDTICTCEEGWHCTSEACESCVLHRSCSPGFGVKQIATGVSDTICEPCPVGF
T11 sequence (P25942 104-193): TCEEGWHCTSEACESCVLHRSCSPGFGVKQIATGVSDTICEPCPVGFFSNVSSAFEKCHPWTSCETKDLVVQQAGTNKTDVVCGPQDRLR

Binder	OD [1]	OD [2]	OD [3]	OD [4]	OD [5]	OD [6]	OD [7]	OD [8]	OD [9]	OD [10]	OD [11]	OD [12]	OD [13]	OD [14]
anti-CD40 human monoclonal antibody 3C3 (antibody, human IgG2, kappa, V domains shown, Human IgG2, C-terminal lysine removed; also called anti-CD40 mAb 3C3; CD40 antibody 3C3) VH: QVQLVESGGGVVQPGRSLRLSCAGSGFIFSRYGMYWVRQAPGKGLEWVAVIWYDGSYKYYADSVKGRFTISRDNSKNTLYLQMNSLRAEDTAVYYCARESPWYYFDYWGQGTLVTVSS VL: DIQMTQSPSSLSASVGDRVTITCRASQGISNYLAWYQQKPGKVPKLLIYAASTLQSGVPSRFSGSGSGTDFTLTISSLQPEDVATYYCQKYKSAPFTFGPGTKVDIKR	1.51 OD 450-650	1.84 OD 450-650	2.01 OD 450-650	2.1 OD 450-650	2.01 OD 450-650	0.25 OD 450-650	0.024 OD 450-650	0.233 OD 450-650	1.7 OD 450-650	1.69 OD 450-650	2.36 OD 450-650	2.21 OD 450-650	0.029 OD 450-650	2.15 OD 450-650
anti-CD40 human monoclonal antibody 3G5 (antibody, human IgG2, V domains shown, Human IgG2) VH: QVQLVESGGGVVQPGKSLRLSCAASGFTFSSNGIHWVRQAPGKGLEWVAVIWSDGSNKFYADSVKGRFTISRDNSKNTLYLQMNSLRAEDTAVYYCARASGSGSYYNFFDYWGQGTLVTVSS VL: EIVMTQSPATLSVSPGERATLSCRASQSVRSNLAWYQQKPGQAPRLLIYGASTRATGIPARFSGSGSGTEFTLTINSLQSEDFAVYYCQQHNKWITFGQGTRLEIK	2.2 OD 450-650	1.19 OD 450-650	2.08 OD 450-650	2.13 OD 450-650	2.19 OD 450-650	2.14 OD 450-650	0.038 OD 450-650	0.042 OD 450-650	0.074 OD 450-650	1.93 OD 450-650	2.21 OD 450-650	2.21 OD 450-650	0.048 OD 450-650	2.17 OD 450-650
